We go through two molecules from publication PMC9592637, “Functional characterization and transcriptional repression by Lacticaseibacillus paracasei DinJ-YafQ” (Applied Microbiology and Biotechnology, 2022).

Data set [1] deals with DinJ (Lacticaseibacillus paracasei 4366). The data set is described as follows: EMSA. The settings on record: KDapp, Hill n 3.7 ± 0.2; salmon sperm DNA competitor; EMSA: 2 nM DNA, 128 ng salmon sperm DNA in 10 uL, 50 mM Tris-HCl pH 7.5, 50 mM KCl, 5% glycerol, room temperature 10 min, 6% native PAGE in TBE; RNAP ….
Data set [2] concerns the molecule itself. As to the kind of experiment: cross-linking; glutaraldehyde 0.1%, then SDS-PAGE; DinJ at 4 and 10 uM, DinJ-YafQ at 2 and 4 uM.

194-bp dinJ-yafQ promoter fragment gave a Kd in data set [1] of 0.061 µM.

B1: His-tagged DinJ (L. paracasei antitoxin DinJ, N-terminal hexa-His tag) (natural protein)
chain: MSNEKRETRLSIRIDPALKEAAQNVANDMGMDLSTAVNMFLAKIVKDHALPFTPTSLPAETLQALKEAKSSRVLKRYRTPEVMWKDLEV
By stoichiometry N is commonly meant the number of molecules, sites or subunits per partner or assembly. Regarding B1, the “stoichiometry N” value in data set [2] was 2.
